These results are taken from PMC4267654.

Read-outs that look alike come from different tables or passages of the source.

In data set [1] the target is T1, R.NgoAVII-B3 (C-terminal B3-like DNA-binding domain) (UniProt Q5F9M9 179-345).
T1 sequence: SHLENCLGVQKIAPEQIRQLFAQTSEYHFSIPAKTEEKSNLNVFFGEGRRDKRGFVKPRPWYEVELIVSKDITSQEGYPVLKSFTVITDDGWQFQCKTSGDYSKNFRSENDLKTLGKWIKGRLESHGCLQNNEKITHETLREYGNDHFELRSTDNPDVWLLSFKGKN
The data set is described as follows: X-ray crystallography.

The target in data set [2] is T1, R.NgoAVII-B3 (C-terminal B3-like …). The data set can be described thus: X-ray crystallography. The source holds these as a separate data set.

B1: DNA-2 oligoduplex (DNA-1 without terminal C1 and G32) (dsDNA)
DNA 1: GGGATTGCCGCTTAG
DNA 2: CCTAAGCGGCAATCC
In the case of B1, the binding result in data set [1] is on record as “binds”.

B2: DNA-1 cognate oligoduplex (dsDNA)
DNA 1: GGGATTGCCGCTTAGG
DNA 2: CCCTAAGCGGCAATCC
B2: the binding result in data set [2] is “binds”.
